According to PMC9105436:

Biological target: coconut protein (coconut)
Test: ITC; Malvern MicroCal PEAQ-ITC; cell 200 uL with the low-concentration solution, syringe with the high-concentration solution (not told which held which); 13 injections of 3 uL; both solutions dialysed; fit with two sets of constants (N1/N2, K1, K2)

- K1: 4.33 µM
- K2: 136 µM
- N1: 2.69
- N2: 1.51
- dH1: -2.75 kcal/mol
- dH2: -1.52 kcal/mol
Substance: gelatin
